# Data from the Immune Epitope Database (IEDB).
# Tests used:
# HLA-B*15:01 [1] = assay: IEDB peptide-MHC binding, purified MHC/direct/fluorescence; filed as Kd, often an IC50 or EC50 that approximates it; ≥ and ≤ were set here for values at or beyond the usual limits of such assays; conditions: source organism: Salmonella enterica
# HLA-B*07:02 = assay: as above; conditions: source organism: Salmonella enterica
# HLA-B*44:02 [2] = assay: as above; conditions: source organism: Salmonella enterica
# HLA-A*69:01 = assay: as above; conditions: source organism: Salmonella enterica subsp. enterica serovar Typhi
# HLA-A*11:01 = assay: as above; conditions: source organism: Salmonella enterica
# HLA-B*27:05 = assay: as above; conditions: source organism: Salmonella enterica
# HLA-A*03:01 = assay: as above; conditions: source organism: Salmonella enterica
# HLA-A*31:01 = assay: as above; conditions: source organism: Salmonella enterica
# HLA-A*01:01 = assay: as above; conditions: source organism: Salmonella enterica subsp. enterica serovar Typhi
# HLA-A*24:03 = assay: as above; conditions: source organism: Salmonella enterica
# HLA-B*40:01 [3] = assay: as above; conditions: source organism: Salmonella enterica
# HLA-A*02:01 = assay: as above; conditions: source organism: Salmonella enterica
# HLA-B*08:01 = assay: as above; conditions: source organism: Salmonella enterica
# HLA-B*58:01 = assay: as above; conditions: source organism: Salmonella enterica
# HLA-A*26:01 = assay: as above; conditions: source organism: Salmonella enterica
# HLA-B*44:02 [4] = assay: IEDB peptide-MHC binding, purified MHC/competitive/radioactivity; filed as Kd, often an IC50 or EC50 that approximates it; ≥ and ≤ were set here for values at or beyond the usual limits of such assays
# HLA-B*40:02 = assay: as above
# HLA-B*18:01 = assay: as above
# HLA-B*45:01 = assay: as above
# HLA-B*40:01 [5] = assay: as above
# HLA-B*44:03 = assay: as above
# HLA-B*15:01 [6] = assay: IEDB peptide-MHC binding, purified MHC/competitive/fluorescence; filed as Kd, often an IC50 or EC50 that approximates it; ≥ and ≤ were set here for values at or beyond the usual limits of such assays; conditions: source organism: Yersinia pestis Angola
# [7] = source organism: Mammarenavirus machupoense
# [8] = source organism: Mammarenavirus lassaense
# [9] = source organism: SARS coronavirus Tor2
sequence,measurement,setting,value
QTDDGVRFT,Kd,HLA-B*15:01 [1],≥ 20 µM
same,Kd,HLA-B*07:02,≥ 20 µM
same,Kd,HLA-B*44:02 [2],≥ 20 µM
same,Kd,HLA-A*69:01,0.0703 µM
same,Kd,HLA-A*11:01,≥ 20 µM
same,Kd,HLA-B*27:05,≥ 20 µM
same,Kd,HLA-A*03:01,≥ 20 µM
same,Kd,HLA-A*31:01,≥ 20 µM
same,Kd,HLA-A*01:01,19.8 µM
same,Kd,HLA-A*24:03,≥ 20 µM
same,Kd,HLA-B*40:01 [3],≥ 20 µM
same,Kd,HLA-A*02:01,≥ 20 µM
same,Kd,HLA-B*08:01,≥ 20 µM
same,Kd,HLA-B*58:01,≥ 20 µM
same,Kd,HLA-A*26:01,≥ 20 µM
RELLKSLSGL,Kd,HLA-B*44:02 [4]; [7],≥ 22.5 µM
same,Kd,HLA-B*40:02; [7],0.0612 µM
same,Kd,HLA-B*18:01; [7],≥ 70.4 µM
same,Kd,HLA-B*45:01; [7],≥ 70 µM
same,Kd,HLA-B*40:01 [5]; [7],0.877 µM
same,Kd,HLA-B*44:03; [7],≥ 23.3 µM
REVGDTSSDL,Kd,HLA-B*44:02 [4]; [8],≥ 24.5 µM
same,Kd,HLA-B*40:02; [8],1.36 µM
same,Kd,HLA-B*18:01; [8],≥ 70.4 µM
same,Kd,HLA-B*45:01; [8],≥ 70 µM
same,Kd,HLA-B*40:01 [5]; [8],11.5 µM
same,Kd,HLA-B*44:03; [8],≥ 24.8 µM
RIYHEFLSL,Kd,HLA-B*15:01 [6],0.0975 µM
SEETGTLIV,Kd,HLA-B*44:02 [4]; [9],≥ 50.1 µM
same,Kd,HLA-B*40:02; [9],7.26 µM
same,Kd,HLA-B*18:01; [9],≥ 50.5 µM
same,Kd,HLA-B*45:01; [9],0.121 µM
same,Kd,HLA-B*40:01 [5]; [9],1.93 µM
same,Kd,HLA-B*44:03; [9],≥ 27.6 µM
SELVIGAVII,Kd,HLA-B*44:02 [4]; [9],1.69 µM
same,Kd,HLA-B*40:02; [9],1.18 µM
same,Kd,HLA-B*18:01; [9],≥ 47.2 µM
same,Kd,HLA-B*45:01; [9],1.9 µM
same,Kd,HLA-B*40:01 [5]; [9],0.684 µM
same,Kd,HLA-B*44:03; [9],0.827 µM
